Reference: patent US20210040209A1 (Janssen / Centocor, published 2021)

Legend:
[1] = target: human PSMA on cells (LNCaP, C4-2B, LNCaP AR, 22RV1 prostate tumor cell lines; human prostate tissue) (human, UniProt Q04609 1-750); assay: cell-based or functional assay
[2] = target: T1, human CD3 epsilon on cells (primary human T cells; mononuclear cells of human tissue) (human, UniProt P07766 23-207); assay: tissue cross-reactivity staining of cryosections of normal human tissues
T1 construct: Part of the TCR/CD3 complex on T cells; also called CD3ε; cell-surface CD3ε
T1 sequence (P07766 23-207 limits assumed): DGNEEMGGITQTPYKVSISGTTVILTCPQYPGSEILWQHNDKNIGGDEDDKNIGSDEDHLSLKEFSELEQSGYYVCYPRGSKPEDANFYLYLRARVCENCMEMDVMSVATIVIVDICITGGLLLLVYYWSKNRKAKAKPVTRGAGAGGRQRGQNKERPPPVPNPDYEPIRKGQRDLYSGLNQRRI
Experimental: A GLP cross-reactivity study was conducted in cryosections of normal human tissues with the study drug and its anti-PSMA parental (bivalent) antibody (positive control). No unanticipated tissue cross-reactivity of the study drug was observed. Membrane staining of epithelial cells and staining of extracellular material in the prostate with both the study drug and the anti-PSMA parental antibody was anticipated due to PSMA expression in these tissues. Staining of mononuclear cells with the study drug only was expected based on the expression of CD3ε on T cells.

human PSMA on cells (LNCaP, C4-2B, LNCaP AR, 22RV1 prostate tumor cell lines; human prostate tissue), sequence (Q04609 whole entry): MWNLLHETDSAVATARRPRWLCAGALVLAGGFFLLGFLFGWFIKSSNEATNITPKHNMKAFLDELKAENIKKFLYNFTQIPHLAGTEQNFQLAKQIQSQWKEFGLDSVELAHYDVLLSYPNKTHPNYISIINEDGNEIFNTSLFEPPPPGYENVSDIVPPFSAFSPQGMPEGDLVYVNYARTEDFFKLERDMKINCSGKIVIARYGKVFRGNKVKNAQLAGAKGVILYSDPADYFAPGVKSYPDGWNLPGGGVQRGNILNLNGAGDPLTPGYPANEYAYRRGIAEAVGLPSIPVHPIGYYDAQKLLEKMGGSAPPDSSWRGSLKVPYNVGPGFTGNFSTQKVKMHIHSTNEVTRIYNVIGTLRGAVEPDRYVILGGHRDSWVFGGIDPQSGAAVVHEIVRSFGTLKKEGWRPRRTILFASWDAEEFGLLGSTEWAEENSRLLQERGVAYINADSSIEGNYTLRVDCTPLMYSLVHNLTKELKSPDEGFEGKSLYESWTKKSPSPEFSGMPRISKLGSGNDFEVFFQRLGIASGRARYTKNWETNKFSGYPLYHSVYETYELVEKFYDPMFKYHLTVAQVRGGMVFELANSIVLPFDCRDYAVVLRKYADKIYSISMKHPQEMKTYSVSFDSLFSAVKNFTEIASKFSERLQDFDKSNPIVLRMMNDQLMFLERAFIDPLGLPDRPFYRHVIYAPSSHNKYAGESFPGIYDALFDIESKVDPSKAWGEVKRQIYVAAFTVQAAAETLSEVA

B1: PS3B27 PSMAxCD3 bispecific antibody (PSMB127 x CD3B219) (bispecific antibody, human IgG4 S228P, kappa, lambda, F234A L235A)
heavy 1: not shown
light 1: not shown
heavy 2: EVQLVESGGGLVQPGGSLRLSCAASGFTFNTYAMNWVRQAPGKGLEWVARIRSKYNNYATYYAASVKGRFTISRDDSKNSLYLQMNSLKTEDTAVYYCARHGNFGNSYVSWFAYWGQGTLVTVSSASTKGPSVFPLAPCSRSTSESTAALGCLVKDYFPEPVTVSWNSGALTSGVHTFPAVLQSSGLYSLSSVVTVPSSSLGTKTYTCNVDHKPSNTKVDKRVESKYGPPCPPCPAPEAAGGPSVFLFPPKPKDTLMISRTPEVTCVVVDVSQEDPEVQFNWYVDGVEVHNAKTKPREEQFNSTYRVVSVLTVLHQDWLNGKEYKCKVSNKGLPSSIEKTISKAKGQPREPQVYTLPPSQEEMTKNQVSLTCLVKGFYPSDIAVEWESNGQPENNYKTTPPVLDSDGSFLLYSKLTVDKSRWQEGNVFSCSVMHEALHNHYTQKSLSLSLGK
light 2: QTVVTQEPSLTVSPGGTVTLTCRSSTGAVTTSNYANWVQQKPGQAPRGLIGGTNKRAPGTPARFSGSLLGGKAALTLSGVQPEDEAEYYCALWYSNLWVFGGGTKLTVLGQPKAAPSVTLFPPSSEELQANKATLVCLISDFYPGAVTVAWKADSSPVKAGVETTTPSKQSNNKYAASSYLSLTPEQWKSHRSYSCQVTHEGSTVEKTVAPTECS
notes: also called the study drug
[1]
  CD25 expression on T cells co-cultured with C4-2B cells, median EC50: 0.06 nM
  T cell dependent cytotoxicity of C4-2B cells, median EC50: 0.08 nM
[2]
  binding result: binds
